This note sets out measurements from patent US12410253B2, “Compositions comprising anti-NRP2 antibodies” (aTyr Pharma, Inc., priority 2019, dated 2025).

The target in one test is T1, Human NRP2 (aa23-855) (Homo sapiens, UniProt O60462).
T1 construct: Human NRP2 (aa23-855)
T1 sequence (O60462 23-855 isoform O60462-3): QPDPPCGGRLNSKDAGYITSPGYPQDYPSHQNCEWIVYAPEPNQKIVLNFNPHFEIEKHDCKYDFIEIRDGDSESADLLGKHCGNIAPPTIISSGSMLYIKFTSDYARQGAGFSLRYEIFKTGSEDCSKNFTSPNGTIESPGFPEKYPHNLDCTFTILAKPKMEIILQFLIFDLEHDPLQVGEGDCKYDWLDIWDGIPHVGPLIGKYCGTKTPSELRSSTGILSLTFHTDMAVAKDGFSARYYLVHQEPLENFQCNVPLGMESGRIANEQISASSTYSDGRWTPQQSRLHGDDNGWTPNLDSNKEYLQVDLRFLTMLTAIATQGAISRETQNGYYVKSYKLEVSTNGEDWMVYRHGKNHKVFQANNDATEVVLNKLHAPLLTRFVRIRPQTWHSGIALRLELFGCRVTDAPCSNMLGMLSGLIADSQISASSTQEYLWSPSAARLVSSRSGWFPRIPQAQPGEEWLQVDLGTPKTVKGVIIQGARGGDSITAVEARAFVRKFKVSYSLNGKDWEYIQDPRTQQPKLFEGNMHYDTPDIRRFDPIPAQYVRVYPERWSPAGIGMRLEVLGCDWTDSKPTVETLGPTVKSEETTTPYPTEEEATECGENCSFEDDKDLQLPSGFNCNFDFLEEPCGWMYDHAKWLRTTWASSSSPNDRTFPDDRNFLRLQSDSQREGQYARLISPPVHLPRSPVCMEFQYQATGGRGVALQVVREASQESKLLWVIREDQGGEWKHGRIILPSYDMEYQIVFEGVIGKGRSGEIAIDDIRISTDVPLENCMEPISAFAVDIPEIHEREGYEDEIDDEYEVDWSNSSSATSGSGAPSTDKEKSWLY
Briefly: SPR binding affinity of anti-NRP2 antibodies to human NRP2 antigen. To be noted: KD = kd/ka, Langmuir (1:1) model. The procedure: Anti-NRP2 antibody binding and affinity measurements. […] SPR experiments were conducted on a Bio-Rad ProteOn XPR36 Protein Interaction Array instrument. Biotinylated anti-human antibody (ThermoFisher Cat #7103302100) was immobilized on ProteOn NLC sensor chips. Anti-NRP2 antibodies were subsequently flowed over and captured by the anti-human antibody. Human NRP2 antigen protein was flowed over the captured antibody at varying concentrations (150, 50, 16.67, 5.56, 1.85 nM). The sensor chip surface was regenerated between each analyte run to remove anti-NRP2 antibodies and NRP2 protein. Data was double referenced against a surface with no anti-NRP2 antibody captured (immobilized anti-human antibody only) and a buffer only blank. Affinity constants were derived by globally fitting sensograms to a Langmuir (1:1) interaction model in the ProteOn manager software. For each anti-NRP2 antibody, data from the multiple NRP2 concentrations was fit as a single data set with dissociation rate constant (kd), association rate constant (ka) and Rmax values as global parameters. The reported binding affinity is the equilibrium dissociation constant (KD) calculated from kd/ka. • Running buffer: 50 mM HEPES, 300 mM NaCl, 5 mM CaCl2), 0.005% Tween-20, pH 7.4 • Immobilized antibody: CaptureSelect Human Fab-kappa Kinetics Biotin Conjugate, ThermoFisher Cat #7103302100 • Antigen: Human NRP2 (aa23-855) with C-terminal Avi-, Myc- and His-tags • Regeneration buffer: 10 mM glycine pH 2.0
A general note: In SPR one partner is held on a chip, and binding of the other changes the refractive index at the surface.

For test [1], the system named is phospho-Akt levels in U251 glioblastoma cells. Briefly: Semaphorin 3F mediated inhibition of AKT phosphorylation in U251 cells. Type of test: cell-based. How it is done: As shown schematically in FIG. 17, the treatment of cells with Sema3F should specifically block PI3K activity via NRP2 mediated interaction with plexin A1, thereby resulting in reduced phospho-Akt levels. To directly test the ability of the anti-NRP2 antibodies to block this effect, lysates were prepared following standard protocols (MesoScale Discovery, Phospho (Ser473)/Total Akt Assay Whole Cell Lysate Kit #K15100D). Serum starved and confluent U251 cells (Sigma, Cat. 09063001) were treated with 10 nM rapamycin (Sigma, Cat. 553211, 30 minutes), and blocking antibodies or controls were added (10 μg/mL, 30 minutes), followed by 25 nM Sema3F or serum free media for 1 hour in triplicate. Lysate protein concentrations were determined by BCA assay and samples were equalized to 0.4 mg/mL. Phospho and Total AKT were measured following the manufacturer's instructions and percent phosphorylation was calculated by dividing phosphorylated AKT relative units by total AKT relative units. Blocking of Sema3F for each antibody or control was determined by comparing percent phosphorylation of Sema3F treated cells to percent phosphorylation of non-Sema3F treated cells.

Changes are numbered by the printed parent chain. “Also recorded” adds a separate entry of the source.

B1: aNRP2-14v10: humanized, affinity matured anti-NRP2 antibody, target domain a2, semaphorin blocking; VH SEQ ID NO: 55, VL SEQ ID NO: 56 (antibody, V domains shown)
VH: QLQLVESGGGVVQPGRSLRLSCTVSGFSLTSYGVHWVRQAPGKGLEWVGLIWSGGSTDYSPAFISRFTISEDNSKSTVYLQMNSLRAEDTAVYFCARNSYSSGYYAMDYWGQGTTVTVSS
VL: DIQLTQSPSFLSASVGDRVTITCKASQNVGTAVAWYQQKPGKAPKLLIYSASNRYTGVPSRFSGSGSGTEFTLTISSLQPEDFATYYCQQRSRYPPYTFGGGTKVEIK
modifications: Variable heavy chain region; Light chain variable region
B1 returned a Kd with Human NRP2 (aa23-855) of 0.17 nM. For the same molecule, in test [1] (antibody 10 μg/mL, 25 nM Sema3F 1 hour), the “blocking of the Sema3F induced decrease in intracellular phospho-Akt levels” value is given as “blocked the reduction in phospho-Akt levels; also recorded: block semaphorin 3F mediated inhibition of AKT phosphorylation; also recorded: can be blocked”.

B2: aNRP2-1v3: humanized, affinity matured anti-NRP2 antibody, target domain b2; VH SEQ ID NO: 43, VL SEQ ID NO: 44 (antibody, V domains shown)
VH: QVQLVQSGAEVKKPGASVKVSCKASGYTFTSYWMHWVRQAPGQGLEWMGAIYPGNSDTSYNQQFKGRVTMTRDTSTSTVYMELSSLRSEDTAVYYCARRGGGYFDYWGQGTLVTVSS
VL: B1 VL with T31A, R91Y, R93S, P96L, Y97L
modifications: Variable heavy chain region; Light chain variable region
Take B2: in the test with Human NRP2 (aa23-855), the Kd was 17 nM.

B3: aNRP2-2v4: humanized, affinity matured anti-NRP2 antibody, target domain c; VH SEQ ID NO: 45, VL SEQ ID NO: 46 (antibody, V domains shown)
VH: QVQLVQSGAEVKKPGASVKVSCKASGYTFTSYWMHWVRQAPGQGLEWMGVIHPNSASTFYNERFKTRATMTVDRSSSTAYMELSSLRSEDTAVYYCSRPGTVRRSDYWGQGTTVTVSS
VL: DVVMTQSPLSLPVTLGQPASISCRSSQNIVHSTGNTYLEWYQQRPGQSPRLLIYKVSNRFSGVPDRFSGSGSGTDFTLKISRVEAEDVGVYYCFQGSHVPWTFGGGTKVEIK
modifications: Variable heavy chain region; Light chain variable region
On to B3, for which the equilibrium dissociation constant (Kd) in the test with Human NRP2 (aa23-855) came out at 2.7 nM. This Kd is about 6.3-fold lower than that of the molecule before.

B4: Sema3F: Semaphorin 3F, NRP2 ligand used to reduce phospho-Akt levels (protein)
chain: SFPTQDHLPATPRVRLSFKELKATGTAHFFNFLLNTTDYRILLKDEDHDRMYVGSKDYVLSLDLHDINREPLIIHWAASPQRIEECVLSGKDVNGECGNFVRLIQPWNRTHLYVCGTGAYNPMCTYVNRGRRAQATPWTQTQAVRGRGSRATDGALRPMPTAPRQDYIFYLEPERLESGKGKCPYDPKLDTASALINEELYAGVYIDFMGTDAAIFRTLGKQTAMRTDQYNSRWLNDPSFIHAELIPDSAERNDDKLYFFFRERSAEAPQSPAVYARIGRICLNDDGGHCCLVNKWSTFLKARLVCSVPGEDGIETHFDELQDVFVQQTQDVRNPVIYAVFTSSGSVFRGSAVCVYSMADIRMVFNGPFAHKEGPNYQWMPFSGKMPYPRPGTCPGGTFTPSMKSTKDYPDEVINFMRSHPLMYQAVYPLQRRPLVVRTGAPYRLTTIAVDQVDAADGRYEVLFLGTDRGTVQKVIVLPKDDQELEELMLEEVEVFKDPAPVKTMTISSKRQQLYVASAVGVTHLSLHRCQAYGAACADCCLARDPYCAWDGQACSRYTASSKRASRAQDVRHGNPIRQCRGFNSNANKNAVESVQYGVAGSAAFLECQPRSPQATVKWLFQRDPGDRRREIRAEDRFLRTEQGLLLRALQLSDRGLYSCTATENNFKHVVTRVQLHVLGRDAVHAALFPPLSMSAPPPPGAGPPTPPYQELAQLLAQPEVGLIHQYCQGYWRHVPPSPREAPGAPRSPEPQDQKKPRNRR
As to B4, in test [1] (25 nM Sema3F, 1 hour), the “decrease in intracellular phospho-Akt levels” value is recorded as “approximately 50%”.

B5: aNRP2-10v13: humanized, affinity matured anti-NRP2 antibody, target domain b1; VH SEQ ID NO: 69, VL SEQ ID NO: 70 (antibody, V domains shown)
VH: EVQLVQSGAEVKKPGATVKISCKVSGFNIKDYYVHWVQQAPGKGLEWMGRIDVHDDETKYAPKFQGRVTITADTSTDTAYMELSSLRSEDTAVYYCATPIYGAREAWFAYWGQGTLVTVSS
VL: DIQMTQSPSSLSASVGDRVTITCTASSSVSSSYLHWYQQKPGKAPKLLIYRTSNLASGVPSRFSGSGSGTDFTLTISSLQPEDFATYYCHQYYRSPPTFGGGTKVEIK
modifications: Variable heavy chain region; Light chain variable region
As to B5, the dissociation constant Kd with Human NRP2 (aa23-855) is 0.358 nM.

B6: aNRP2-10v5: humanized, affinity matured anti-NRP2 antibody, target domain b1; VH SEQ ID NO: 47, VL SEQ ID NO: 48 (antibody, V domains shown)
VH: B5 VH with V34I, H54E, A103S
VL: B5 VL
modifications: Variable heavy chain region; Light chain variable region
For B6, the affinity with Human NRP2 (aa23-855), expressed as Kd, was 0.2 nM.

The term Kd denotes a measure of binding affinity in units of concentration.
